Laboratory results from patent US8076297B2, “Pharmaceutical composition containing polypeptide fragments of serralysins” (Centro De Ingenieria Genetica Y Biotecnologia, priority 2004, dated 2011).
Entries after “also recorded” stand apart in the source; their conditions may differ. Where two headings read alike, the source gives them in different places.

Tests used:
casein = assay: Proteolytic activity, modified Anson and Mirsky method; format: biochemical
Excerpt: The modify method of Anson y Mirsky (Anson, M. L., Mirsky, A. E. 1932. J. Gen. Physiol. 16: 59) using casein as sustrate, was adjust in our laboratory with Tripsina (y=1.9314x-0.682; R^2=0.999). The proteic fraccions obtained in the chromatography describe in the Example 6 were assay with this method.

P3X63Ag8 mieloide tumor = assay: Regression of implanted P3X63Ag8 myeloid tumor; format: in vivo, BALB/c mice
Method: The p25 was them injected i.p. to mice BALB/c after of 8 days of implanted P3X63Ag8 mieloide tumor and perfectly development. The doses of 22 μg/kg of weigh of p25 induced total regression in the 80% of the animals treatment. the negative controls death in the end of 30 days, where already had development compact tumors.

[1] = test system: human microvasculature endothelial cells (HMEC); assay: Formation of tubular structures in matrigel; format: cell-based; conditions: non-cytotoxic concentrations; activation with 10 ng/mL EGF, 1 μg/mL hydrocortisone
Excerpt: Anti-angiogenic effect of MG2327 and anti-proliferative polypeptides fragments were evaluate by the method of formation of tubular structure in matrigel. Non citotoxic concentration of MG2327 and their fraction p25 y p50 were incubed with human microvasculature endothelial celulas (HMEC). The final result it evalued considering the tubular structure length formed and the number of interconexión between them. For this used Pro Express 4.5 Image-program.
Human micro-vasculature-derived human endotelial cells (HMEC) were assessed for endothelial cord formation on matrigel (Crum R, Szabo S, Folkman J. 1985. Science. 230:1375-8; Vacca, A., Ribatti, D., Presta, M., Minischettti, M., lurlaro, M, Ria, R, Albini, A, Bussolino, F. and Dammaacco, F. 1999. Blood 93:3064) after culture under non-cytotoxic MG2327 and p25 and p50 concentrations (Sanz, L., Pascual, M., Muñoz, A., González, M. A., Salvador C H, Álvarez-Vallina L. 2002. Microvascular Research 63:335-339). Results considered the length of tubular structures and the number of interconnections between them, as calculated by using the Image-Pro Express 4.5 package.

[2] = test system: murine mieloma P3X63Ag8 cells; assay: Apoptosis: DNA laddering and electron microscopy; format: cell-based
Method: For determining the kind of tumoral cell death, murine mieloma P3X63Ag8 cells (2*10^7) were treated in vitro with MG2327 at 22 μg/mL. Treated and untreated cells were prepared for ultrastructural transmission electron microscopy studies at different times, and genomic DNA was extracted for DNA laddering assay.
DNA fragmentation was assessed by 2% agarose gel electrophoresis. Apoptosis frequently involves cellular DNA laddering of 180-200 bp, representative of inter-nucleosomal distances (Soldatenkov, V. A., Prasad, S., Voloshin, Y., and Dritschilo, A. 1998. Cell Death Differ. 5:307-12).

HEp-2 cells = assay: Anti-proliferative assay on HEp-2 cells, MTT method; format: cell-based, human
Method: For the characterization of the antiproliferative activity of MG2327 “in vitro” a panel of human cell lines was evaluated (table 1). A total of 2000 cells, except for PBMC (20000), were seeded in 96 wells culture wells, and different concentrations of MG2327 were added. After 72 hours, the number of survival cells was estimated by addition of MTT (Skehan, P., Storeng, R., Scudiero, D., Monks, A., Mcmahon, J., Vistica, D., Warren, J. T., Bokesch, H., Kenney, S. and BOYD, M. R. 1990. J Natl Cancer Inst. 82:1107). The soluble formazan products were detected at 540 nm in a multiscan plate reader.

gelatine = assay: Proteolytic activity, zymogram method; format: biochemical
Excerpt: The method of the cimogeno using gelatine as sustrate (Vacca, A., Iurlaro, M., Ribatti, D., Minischetti, M., Nico, B., Ria, R., Pellegrino, A. and Dammacco, F. 1999. Blood. 94:4143-4155) was employed to verify the proteolytic activity of p50 and p25. Moreover was analized the enzymatic capacity of the degradation of p50.

B1: p25: 25 kDa non-proteolytic C-terminal fragment of serralysin PRZN_SERMA/PRZN_SERSP, degradation product of p50 (protein)
chain: SYWSETNTGGDNGGHYAAAPLLDDIAAIQHLYGANPSTRTGDTVYGFNSNTGRDFLSTTSNSQKVIFAAWDAGGNDTFDFSGYTANQRINLNEKSFSDVGGLKGNVSIAAGVTIENAIGGSGNDVIVGNAANNVLKGGAGNDVLFGGGGADELWGGAGKDIFVFSAASDSAPGASDWIRDFQKGIDKIDLSFFNKEANSSDFIHFVDHFSGTAGEALLSYNASSNVTDLSVNIGGHQAPDFLVKIVGQVDVATDFIV
proteolytic (enzymatic) activity (casein): no showed enzymatic activity; also recorded: non present enzymatic activity; also recorded: do not present activity
animals with total regression (P3X63Ag8 mieloide tumor; 22 μg/kg i.p., 8 days after tumor implant): 80%
tumor regression (P3X63Ag8 mieloide tumor; mouse, in vivo): induce total regression
differentiation of endothelial cells / tubular net formation [1]: significant inhibition; also recorded: index of net formation inferior to that observed for MG2327 and p50
ultrastructural changes (electron microscopy) [2]: chromatin condensing, damaged mitrocondria cristae and clustered mitocondria were detected
inhibition of the growing of the tumor cells (HEp-2 cells; 18 μg/mL): 100%
activity of 25 kDa fraction compared with 50 kDa fraction (HEp-2 cells; 9 and 18 μg/mL): most active
activity of 25 kDa component compared with MG2327 (HEp-2 cells; doses of 2.5, 4.5 and 9 μg/mL): showed major biologic activity
IC50 (HEp-2 cells; fractions recovered from SDS gels and renaturalized, p50 with Zn4SO2 5 μM added, read-out: IC50 (FIG. 2)): 0.35 nM
IC50 (HEp-2 cells; fractions recovered from SDS gels, p50 incubated with 5 μM Zn2SO4, read-out: IC50 of the fractions p25 and p50): 0.48 nM
antiproliferative activity (HEp-2 cells; gel-recovered fractions, no zinc added (incubated with EDTA)): dosis-dependiente potent anti-proliferative activity; also recorded: strong antiproliferative dose dependent activity
anti-proliferative effect (HEp-2 cells; proteins purified by DEAE chromatography): showed anti-proliferative effect on HEp.2
proteolytic activity (gelatine): no showed this activity
